The text below walks through data of patent publication US12692310B2, “ASIC1 channel antagonist antibody” (ShanghaiTech University, priority 2019, dated 2026).

Assay [1] addresses T1, hASIC1a-eYFP on CHO-K1 cells (Homo sapiens, UniProt P78348).
T1 construct: overexpress the full-length hASIC1a (1-528 amino acids) protein fused with eYFP; expressed in transfected cells; host or cells: CHO-K1, transient
T1 sequence (P78348 1-528): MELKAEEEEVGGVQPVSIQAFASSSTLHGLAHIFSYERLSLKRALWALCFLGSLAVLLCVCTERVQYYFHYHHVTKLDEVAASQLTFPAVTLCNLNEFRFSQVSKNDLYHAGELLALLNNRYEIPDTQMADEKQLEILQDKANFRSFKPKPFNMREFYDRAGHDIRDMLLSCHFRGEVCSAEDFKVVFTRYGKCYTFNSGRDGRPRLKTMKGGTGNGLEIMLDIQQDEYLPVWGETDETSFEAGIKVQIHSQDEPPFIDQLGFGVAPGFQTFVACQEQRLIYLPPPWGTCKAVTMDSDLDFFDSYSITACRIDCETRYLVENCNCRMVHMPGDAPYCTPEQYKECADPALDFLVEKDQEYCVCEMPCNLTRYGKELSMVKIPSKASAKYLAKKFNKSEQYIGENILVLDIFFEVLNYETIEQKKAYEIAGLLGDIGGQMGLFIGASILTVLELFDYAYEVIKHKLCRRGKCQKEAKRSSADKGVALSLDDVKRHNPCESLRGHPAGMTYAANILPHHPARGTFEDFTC
Nature of the assay: Immunocytochemistry on CHO-K1/hASIC1a cells. The following applies: ICC, confocal; for localization to plasma membranes of cells expressing hASIC1a-eYFP: compared to ASC01 and ASC05. In kind it is cell-based. Here is the method: Cell Membrane Colocalization Studies Using Immunocytochemistry (ICC). Cells (CHO-K1) were seeded onto the poly-D-lysine-coated glass bottom 24-well plates at a concentration of 2×10^5 cells per mL. After 12 h of cultivation, the CHO-K1 cells were transfected with ASIC plasmids by Lipofectin 3000 reagent. Twenty-four hours after transfection, the cells were fixed in 4% paraformaldehyde and incubated for 30 min in a blocking solution (5% goat serum in PBS). The resulting cells were incubated with […] ASC06-IgG1 at 4° C. overnight followed by three PBS washes for 5 min each and incubation with the Alexa555-conjugated goat anti-human secondary antibody (Life Technology). After three additional PBS washes for 5 min each, the nuclei of the cells were stained with DAPI (#10236276001; Roche). The ICC analysis was performed on a laser scanning confocal microscopy (ZEISS LSM710) with a 63×N.A. 1.4 objective at 25° C. Images were collected on a 1,024×1,024-pixel EM-CCD camera. Data acquisition and analyses were performed with the ZEN 2012 professional software.
To understand whether ASC01-ASC06 specifically bind to the ASIC1a protein expressed on cell surface, the binding of the antibodies to CHO-K1/hASIC1a cells was evaluated using immunocytochemistry. The CHO-K1/hASIC1a cells overexpress the full-length hASIC1a (1-528 amino acids) protein fused with eYFP. […] It is likely that ASC01-ASC05 recognize specific ASIC1a confirmations or subpopulations.
The ASC06 antibody was converted into a full length IgG1 form (ASC06-IgG1) for further study. […] The binding of ASC06-IgG1 to CHO-K1/hASIC1a cells was evaluated using immunocytochemistry, in comparison with the ASC06 (scFv format) antibody.

For the next assay, the target named is T2, ΔhASIC1a-nanodiscs (Homo sapiens, UniProt P78348).
T2 construct: A truncated ASIC1a (amino acids 13-464; ΔhASIC1a) was overexpressed and purified; made in house; host or cells: HEK293F (BacMam baculovirus)
Description: Binding affinities of scFv antibodies to ΔhASIC1a-nanodiscs, Octet system. The note with it: scFv format; for Response: Conc. 500 nM; for Response / Kd: Octet system; for affinities for ΔhASIC1a nanodiscs, comparison in words: among ASC01-ASC06. An excerpt: Nanodisc Assembly of hASIC1a Channel. To mimic the lipid bilayer environment of cellular membranes, the purified ΔhASIC1a protein was incorporated into a lipid nanodisc by mixing the ΔhASIC1a protein with the membrane scaffold protein (MSP). and 1,2-dimyristoyl-sn-glycero-3-phosphocholine (DMPC) at a molar ratio of 3:2:65. The associated detergents were removed by gentle agitation with the Bio-Beads SM2 [Bio-Beads:DDM=10:1 (wt/wt); Bio-Rad]overnight. The ΔhASIC1a-embedded nanodiscs were separated from the unassembled nanodisc using the Flag peptide-specific magnetic beads. D'Antona et al., Biochemistry 53:127-134 (2014). The desired ΔhASIC1a nanodisc assembly was further purified and collected using a Superose 6 column (GE Healthcare) in a buffer containing 20 mM Tris, pH 7.5, and 150 mM NaCl. The empty nanodiscs were packaged without the addition of ΔhASIC1a. The composition of the assembled ΔhASIC1a nanodiscs was analyzed by SDS-PAGE, EM, and dynamic light scattering (FIGS. 9A-C, 12A, 12B)
The binding ability of ASC01-ASC06 antibodies in scFv format to ΔhASIC1a-nanodiscs, in comparison to the empty nanodiscs, was evaluated using ELISA. […] Affinities of the antibodies were then measured.

Assay [2] concerns the target truncated hASIC1a (amino acids 13-464) (human) (UniProt P78348). Description: Octet, scFv format, ΔhASIC1a nanodiscs.
Assay [3] shares this target. Description: Octet, scFv format at 500 nM, ΔhASIC1a nanodiscs.
The target in a further assay is T3, hASIC1a-eYFP (human, UniProt P78348 1-528).
T3 construct: whole, on cells; On CHO-K1 cells, stably (6H7) or transiently transfected; also called full-length hASIC1a (1-528 amino acids) fused with eYFP; CHO-K1/hASIC1a cells; not shown: C-terminal eYFP fusion
T3 sequence (looked up): T1 sequence (P78348 1-528)
Description: immunocytochemistry, confocal microscopy, CHO-K1 cells expressing hASIC1a-eYFP.

T2 sequence (P02647 68-267 partner limits assumed, one chain of several): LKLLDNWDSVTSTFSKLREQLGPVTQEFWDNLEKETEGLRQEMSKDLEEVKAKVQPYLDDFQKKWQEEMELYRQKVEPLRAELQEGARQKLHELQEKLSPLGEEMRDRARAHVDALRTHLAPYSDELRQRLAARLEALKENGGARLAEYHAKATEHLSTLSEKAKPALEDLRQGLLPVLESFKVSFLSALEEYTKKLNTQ

B1: ASC03: anti-ASIC1a scFv antibody, VH SEQ ID NO: 22 and VL SEQ ID NO: 27 (antibody, V domains shown)
VH: QVQLVESGAEVKKPGSSVKVSCKASGGNFRKYSISWVRQAPGQGLEWMGWISAYNGNTNYAQKLQGRVTMTTDTSTSTAYMELRSLRSDDTAVYYCARDFDPYYDAFDIWGQGTTVTVSS
VL: QSALTQPASVSGSPGQSITISCTGTSSDVGAYNYVSWYQQHPGKAPKLMIYDVSNRLSGVSNRFSGSKSGNRASLTISGLQAEDEADYYCSSYRSGNSLAFGGGTKLTVLG
modifications: scFv linker; Amino acid sequence of ASC03 VH; Amino acid sequence of ASC03 VL
Take B1: the “localization to plasma membranes of cells expressing hASIC1a-eYFP” value (“localization to plasma membranes” for short) in assay [1] is “localized more to the plasma membranes”. Further, in the assay with ΔhASIC1a-nanodiscs, the Response worked out at 0.2693 and binding was put at a Kd of 259 nM.

B2: ASC06 (scFv, V domains shown)
VH: QVQLQQSGGGLVQPGGSLRLSCAASGFTFSSYAMSWVRQAPGKGLEWVSAISGSGGSTYYADSVKGRFTISRDNSKNTLYLQMNSLRAEDTAVYYCAKDSFYGYSKGDWGQGTLVTVSS
VL: QSALTQPASVSGSPGQSITISCTGTSSDVGAYNYVSWYQQQPGKAPKLMIYGVSNRPSGVSNRFSGSKSGNAASLTISGLQAEDEADYYCSSYTSSSTYVFGTGTKLTVLG
B2 came in with a Kd in assay [2] of 21.7 nM. The same molecule returned a Response in assay [3] of 0.571.

B3: ASC06: anti-ASIC1a scFv antibody, VH SEQ ID NO: 52 and VL SEQ ID NO: 57 (antibody, V domains shown)
VH: B2 VH
VL: B2 VL
modifications: scFv linker; Amino acid sequence of ASC06 VH; Amino acid sequence of ASC06 VL
Turning to B3, in assay [1], the “membrane co-localization with hASIC1a” value was “more co-localization with hASIC1a-eYFP” and the “localization to plasma membranes” value is given as “localized more to the plasma membranes”. In the assay with ΔhASIC1a-nanodiscs, the Response is reported as 0.5712; the Kd is 21.7 nM; the “affinities for ΔhASIC1a nanodiscs, comparison in words” value is listed as “strongest affinities”.

B4: ASC01 (scFv, V domains shown)
VH: QVQLVETGPRLVKPSQTLSLTCTVSGGSINSGGYYWGWIRQHSGKGLEWIGYIYPRGSSYYNPSLRSRVTISADTSRNNFSLKLTSVTAADTAVYYCARVGYTGAFDIWGQGTLVTVSS
VL: QAVLTQPSSVSAAPGQKVTISCSGGNSNIGNNYVSWYQQLPGTAPKLLIYDNNKRPSGIPDRFSGSKSGTAATLGITGLQTGDEADYYCGTWDSSLSAGVFGEGTQLTVLG
notes: also called ASC01 scFv; ASC01 (scFv format)
With B4, the binding result with hASIC1a-eYFP is on record as “binds”. Further, the Kd in assay [2] was determined as 45.1 nM. Also, the Response in assay [3] was determined as 0.431.

B5: ASC01: anti-ASIC1a scFv antibody, VH SEQ ID NO: 2 and VL SEQ ID NO: 7 (antibody, V domains shown)
VH: B4 VH
VL: B4 VL
modifications: scFv linker; Amino acid sequence of ASC01 VH; Amino acid sequence of ASC01 VL
In the assay with ΔhASIC1a-nanodiscs, B5 displayed a Response of 0.431 and a Kd of 45.1 nM.

B6: ASC04: anti-ASIC1a scFv antibody, VH SEQ ID NO: 32 and VL SEQ ID NO: 37 (antibody, V domains shown)
VH: QVQLVQSGAEVKKPGSSVKVSCKASGGTFSTYAINWVRQAPGQGLEWMGWMNPNSGNTGYAQKFQGRVTMTRNTSISTAYMELSSLRSEDTAVYYCARYSYGMDVWGQGTTVTVSS
VL: QAVLTQPSSLSASPGASVSLTCTLRSGINVGAYRIYWYQQKPGSPPQFLLRYKSDSDKQQGSGVPSRFSGSRDASANAGILLISGLRSEDEADYYCAIWHSSAWVFGGGTKLTVLG
modifications: scFv linker; Amino acid sequence of ASC04 VH; Amino acid sequence of ASC04 VL
As for B6, the “localization to plasma membranes” value in assay [1] is “localized more to the plasma membranes”. Besides, in the assay with ΔhASIC1a-nanodiscs, the Response amounted to 0.995; the Kd was 20.8 nM; the “affinities for ΔhASIC1a nanodiscs, comparison in words” value was “strongest affinities”.

B7: ASC02: anti-ASIC1a scFv antibody, VH SEQ ID NO: 12 and VL SEQ ID NO: 17 (antibody, V domains shown)
VH: QVQLVQSGAEVKKPGASMKVSCTTSGYTVTGYYIHWLRQAPGQGFEWMGWINPNLGVTNYAQKFQGRVSMTRDPSIKTAYLELSGLRSDDTAMYYCARASTGGIFYDYWGQGTLVTVSS
VL: NFMLTQPHSMSESPGKTVTISCTRSSGNIASNYVQWYQQRPGSSPTTVIYDDNQRPSGVPDRFSGSIDSISNSASLTISGLKTEDEADYYCQSYDSSSVIFGGGTKLTVLG
modifications: scFv linker; Amino acid sequence of ASC02 VH; Amino acid sequence of ASC02 VL
Regarding B7, in assay [1], the “localization to plasma membranes” value is recorded as “localized more to the plasma membranes”. Moreover, in the assay with ΔhASIC1a-nanodiscs, the Response worked out at 0.2888 and binding was put at a Kd of 262 nM.

B8: ASC05: anti-ASIC1a scFv antibody, VH SEQ ID NO: 42 and VL SEQ ID NO: 47 (antibody, V domains shown)
VH: QVQLVESGAEVKKPGASVRVSCKASGYSFTNYYMHWVRQAPGQGLEWMGIISPSGRSTSFAQKFQGRVTMTRDTSTSTVYMHLSSLRSDDTAVYYCARGAWSTDAFDIWGQGTTVTVSS
VL: QSALTQPASVSGSPGQSITISCTGTSSDVGSYNLVSWYQQHPGKAPKLMIYEGSKRPSGVSNRFSGSKSGNTASLTISGLQAEDEAEYHCSSFTGKGYVFGTGTKLTVLGGLG
modifications: scFv linker; Amino acid sequence of ASC05 VH; Amino acid sequence of ASC05 VL
Regarding B8, in the assay with ΔhASIC1a-nanodiscs, the Response is 0.5016 and the equilibrium dissociation constant (Kd) is 137 nM.
